Source: patent US20160230171

Experiments:
plakoglobin = molecular target: T1, plakoglobin
T1 chain: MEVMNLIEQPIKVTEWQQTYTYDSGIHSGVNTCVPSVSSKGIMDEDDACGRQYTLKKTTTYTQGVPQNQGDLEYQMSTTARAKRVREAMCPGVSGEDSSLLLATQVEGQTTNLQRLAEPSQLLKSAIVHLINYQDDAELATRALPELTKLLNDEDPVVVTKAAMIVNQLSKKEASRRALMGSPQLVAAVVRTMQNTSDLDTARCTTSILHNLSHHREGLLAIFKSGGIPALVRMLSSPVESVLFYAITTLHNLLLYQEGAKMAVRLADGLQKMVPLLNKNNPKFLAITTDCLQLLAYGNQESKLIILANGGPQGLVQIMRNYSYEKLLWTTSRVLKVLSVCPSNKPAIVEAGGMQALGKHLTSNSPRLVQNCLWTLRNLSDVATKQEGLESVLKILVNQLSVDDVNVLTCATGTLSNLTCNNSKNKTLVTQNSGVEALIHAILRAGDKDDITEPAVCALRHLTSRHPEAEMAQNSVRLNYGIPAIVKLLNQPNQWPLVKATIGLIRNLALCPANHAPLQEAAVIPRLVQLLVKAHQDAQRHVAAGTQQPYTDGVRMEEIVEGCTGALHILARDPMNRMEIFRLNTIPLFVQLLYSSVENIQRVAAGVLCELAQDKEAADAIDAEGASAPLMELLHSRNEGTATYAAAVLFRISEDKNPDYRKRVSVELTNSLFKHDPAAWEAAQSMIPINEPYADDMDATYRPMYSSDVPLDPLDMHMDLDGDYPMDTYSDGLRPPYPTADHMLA

6His-plakoglobin = molecular target: T2, 6His-plakoglobin
T2 chain: T1 chain

B1: GST-Trim32 (protein)
chain: MAAAAAASHLNLDALREVLECPICMESFTEEQLRPKLLHCGHTICRQCLEKLLASSINGVRCPFCSKITRITSLTQLTDNLTVLKIIDTAGLSEAVGLLMCRGCGRRLPRQFCRSCGVVLCEPCREADHQPPGHCTLPVKEAAEERRRDFGEKLTRLRELTGELQRRKAALEGVSRDLQARYKAVLQEYGHEERRIQEELARSRKFFTGSLAEVEKSNSQVVEEQSYLLNIAEVQAVSRCDYFLAKIKQADVALLEETADEEEPELTASLPRELTLQDVELLKVGHVGPLQIGQAVKKPRTVNMEDSWAGEEGAASSASASVTFREMDMSPEEVAPSPRASPAKQRSSEAASGIQQCLFLKKMGAKGSTPGMFNLPVSLYVTSQSEVLVADRGNYRIQVFNRKGFLKEIRRSPSGIDSFVLSFLGADLPNLTPLSVAMNCHGLIGVTDSYDNSLKVYTMDGHCVACHRSQLSKPWGITALPSGQFVVTDVEGGKLWCFTVDRGAGVVKYSCLCSAVRPKFVTCDAEGTVYFTQGLGLNVENRQNEHHLEGGFSIGSVGPDGQLGRQISHFFSENEDFRCIAGMCVDARGDLIVADSSRKEILHFPKGGGYSVLIREGLTCPVGIALTPKGQLLVLDCWDHCVKIYSYHLRRYSTP
plakoglobin
  polyubiquitination in vitro (E1, UbcH5, ATP, 6His-ubiquitin; nickel column; mass spectrometry): plakoglobin was polyubiquitinated by Trim32 (as documented by the presence of 13 unique peptides)

B2: recombinant Trim32 (protein)
chain: B1 chain
6His-plakoglobin
  polyubiquitination in vitro (Trim32, UbcH5, ubiquitin, ATP; Ni column; immunoblot with anti plakoglobin): recombinant Trim32 also polyubiquitinated 6His-plakoglobin, which was expressed and purified from normal muscle
